We go through 16 sequences from the DeepSol protein solubility set.

The nature of the series: soluble on expression in E. coli; label from the status in PepcDB or PDB records.
In the case of “MKTKQTIAASTLALAMIAGANSAHAEVNDATPQQSTGDRLAEIKQHKQGLDAKLQQHKENVDQTLNELNKVKENVDTKVNELHERKQVADEKINEIKQHKQELDAKLQQDKQIAEDKIAEIKEHKKQVEDKVAEVKEHKQNIDNKVNEIKEHKQTVDEKVNEMKQHKENIDQKVNELKEVKKQVDEKLAELKKAKQTAEDKLAELKENKPNTGNTLEELKKIKSNLDSLSANLELAKQDVKNKLAALQEARQDLINKINEIKQSKQTVSDDLSKKKQDLDIKINDFKHTEKKIDDKLAEIHTTKQNIDNKINEVSQSKQTETKTGTTNANNNARELPNAGSKQSNNMALGMLSVLGGILLVTRNKIKTLFSK”, the “soluble on expression in E. coli” value is on record as “not soluble”. “MKTLSKQDNTMEWLVKKSCCNKQDNRHVLMLCDAGGAIKMIAEVKSDFAVKVGDLLSPLQNALYCINREKLHTVKVLSASCYSPDEWERQCKVAGKTQ”: the “soluble on expression in E. coli” value is “soluble”. For the sequence “MKTLVHLSDLHFGKTESHLVDAIAAEVRAVDSDLLVVSGDLTQRARKDEFLQARAFLDSLPGPRIVVPGNHDVPLWNVFARAMTPLSRYRRYIEADTDPFYADSEVAVVGINTARSLTIKNGRINVRQLKAATEKFAYMSDDITRIVVTHHPFEGLDLESDDGIVARADLAMDAFSRSGVDIILSGHQHLHRAGSSARRYLIDGYAALLVQAGTAVSSRVRQAANSFNIIRIEHPRISIECRAWQSLQSGFETSASYSFRQGSGGWEPALEHHHHHH”, the “soluble on expression in E. coli” value is on record as “not soluble”. Then “MKTQQREQALAIYQQHQGKITNRAIADTIGVSAKTIGIWKKQDKWKEALFSASKNEQKQRPINNDELNERQRLFCLYYVKSFNATQSAIKAGYSPDSAHVTGSRLLKNEKVAAEIRRIKKEMVNEMFIEAMDVLQVYIKIAFADITDYVTFGKKEVQAVGKSGPLFDEDDNPIMKEISFVDVKDSGLVDGTIVTEAKLGKEGIAIKLADKMKALEKLSLYFDLFPDQFKQKIENEKLKLAKQKAEKTDDSQEPIEIMIKRKERKS”, with “not soluble”; and “MKTRVVLILALSVCIEAASEVIRARAYIFKAEAGKIPTELIGTIDFDQSGSFLKLNGSVSGLAAGKHGFHIHEKGDTGNGCLSAGGHYNPHKLSHGAPDDSNRHIGDLGNIESPASGDTLISVSDSLASLSGQYSIIGRSVVIHEKTDDLGRGTSDQSKTTGNAGSRLACGTIGTV”, with “not soluble”.

In the case of “MKTSKFTEAQIAFALKQAELGTKVEEVCRKLGISEATFYNWKKKYGGVGPSELRRMRQLEEENTKLKRLVADLSLDKAMLQDVLSKKLAAALEHHHHHH”, the “soluble on expression in E. coli” value is on record as “not soluble”. As to “MKTTPVTPDDLQRSVIAVPPLARHADLTLNPAANQAVLRHLEAGGVRSVMYGGNANFYHVQVSEYAQLLDFLAESAGPDTWVLPSAGPDYGKLMDQAAILRTRDFPTAMLLPMSFPYTDAGLADGIRRFSDAMDRPAVVYIKSSDYLAPATVARLIGEGRIAALKYAVVREDPARDPYLDALLKEVDPRWIVSGIGERPAIVHFRQFGLRSFTSGSVCVAPRGSMRLLHLLHQGDFEAAEQVRAAYIPLEDCRDGISPIRVLHDAVTLAGVADMGPMLPLLSGLDPADRERVAPVARALLAGDRQ”, the “soluble on expression in E. coli” value was “not soluble”. As to “MKTWLTTLILSLSTLGLAHADVATTQQNLKKNFPEIPVSAVNTTPVKGVYEVITEGQIVYTNDDAQYFFVGNLVDPKNQRNLTAERMQQLNKIDVSTLPLNQAIKHVKGNGKRTLYIFSDPDCPYCQRLEKELTAVDNVTIYLFLFPLTTLHPNAETIATQIWCSKNQYQAWQDYLLNHKAPTASQKCSTPIQKNLALGQKLNINGTPTMYLKNGERIAGAMQAGQLNTLLDQAQ”, the “soluble on expression in E. coli” value was “not soluble”. In the case of “MKVEKFKVLLYLKKSEPDKNGKAPIMGRITLNRTMAQFSCKLSCTPELWNARESRLNGKSRKAVETNEKIERLLLAVHSAFNSLMERKKDFDAAAVRDMFQGNAGIQMTLLKLLDRHNGEMKARVGVDRAPTTLSTYLFTYRTLSEFIKAKFKVSDLAFGQLNEQFIRDYQDFILMEKGHAVDTLRGYLAILKKICRIAYKEGHSEKYHFCHFKLPKQKESTPKALSRENFEKLRDLEIPEKRRSHVITRDLFLFACYTGTAYADVVSITRENLFTDEENNLWLKYRRKKTNYLGRVKLLPEALVLIEKYRDDARMTLFPPQDYHTLRANMKSLRLMAGLSQDLVYHTARHSFASLITLEEGVPIETISKMLGHSNIKTTQIYARVTPKRLFEDMDRFIEATRDLKLIL”, the “soluble on expression in E. coli” value was “not soluble”.

On to “MKVEPYRLVVNEHQVNNTNSKENLKIVQLSDLHIKKDFNADRLDKVIQKTNEQNPDFIIFSGDLYDNYSQYNENEAVISKLKSLKAKYGKIAIWGNRDYGGGAVKEYANIMAESDFSLLRNENQVFTLDNGKKILFTGLDDALLGNPQFPSPNQMAETSYDILLTHEPDEVSQYQNKGYELILSGHSHGGQINVPLIPQIQKKATALMSHANNYTGGLYQLGANEKLYVNTGIGTTHLSARFGVAPEIAVLTFLEHHHHHH”, for which the “soluble on expression in E. coli” value is listed as “not soluble”. Consider “MKVFIIGAAGGIGNRLSSLLHARGDAVSGMHRNLEQASKITDTGATAVLGDLIHNSTEELAELFRGHDAIVFSAGAHGTGQENTTLIDGAGLRKAADAASAANVSRFILVSAFPESSRGENTTENFEHYMKVKKSADVYLSHTDLDWVIVRPGVLQDEAGDGLVTAGLAINYGNVARDNVAAFIDEALHQPQLSKIIVELTDGSTPVAEAVERLIKLEHHHHHH”, for which the “soluble on expression in E. coli” value was “soluble”. “MKVFLIGANGQIGQRLVSLFQDNPDHSIRAMVRKEEQKASLEAAGAEAVLANLEGSPEEIAAAAKGCDAIIFTAGSGGSTGYDKTLLVDLDGAAKAIEAAAIAGIKRFIMVSALQAHNRENWNEALKPYYVAKHYADKILEASGLTYTIIRPG”: the “soluble on expression in E. coli” value is “not soluble”. For the sequence “MKVIEFHQVSKWYGQFQALKSISLTVNKGEIVVICGPSGSGKSTLIRTVNGLESIDSGEIIVLPELDERTRRSGKIGMVFQHFNLFPHLTVLENLTLAPIRTLKLSAQEAKERAYHFLQRVKITDQTHKYPIQLSGGQQQRVAIARSLCMQPEILLFDEPTSALDPETINEVLEVMVDLAQDGITMMCVTHEMGFARKVAHRVMFMDEGEILEVGSPEQLFQNPTHPRTQQFLNQILSH”, the “soluble on expression in E. coli” value was “not soluble”. For the sequence “MKVIGINGSPRRAGNTSIMLKTIFEVLEDEGIETELIQVGGTNIKGCRACYACIKNKNSECSTKGDGFNEIFAKMVEADGMILGSPTYFADITPELKALIDRAGFVSRTNGQLFRHKVGASVVSLRRGGGIHAYDSINHLFQICQMFMVGSTYWNLGFGGRDGGEVVNDTEGMENMRDLGHSMAFLLKKLHNLEHHHHHH”, the “soluble on expression in E. coli” value was “not soluble”. For “MKVIIFYTKTGGGHLSACKSLEESLNSMNIPVVTLDSLEFAGHLVSKEICSAYNYIVKSVPELFGALYNAGEKISDHNKKSIIYKLNSFYADNILTVLEEEQPDIIISTHIFATQSLSYLKQKNKVKALTASIVTDYTCAPFWEETDLDYYFLPHKDLIKEFKDKGLDSSKLIAFGLPIDSKFKVKTPKEKAKFNLALKKDKPHILIMGGSMGAGSVKDTTLYISKHLKECNITTICGNNKELFKEISEIKKSNPKIHVLQFTHEMNELMDSADILITKPGGLTSTEAMNKSLPIIMINPIPGVESANCNFFMKHNLGIKSNSLHETLKVCEKLISDKNFYEKIVSSQKLNSNINAAEDICKFLITKYHEIQYNSDNNSLLEHHHHHH”, the “soluble on expression in E. coli” value is recorded as “soluble”. For “MKVLGLIVEYNPFHNGHLYHLEESKKISGADFVVCVMSGNFIQRGEPAIVNKWARTKMALSAGADLVIELPLSCAMASAEYFASGAVRILNDIGIVDYICFGSEHGDVKTLDYIAQILVEEPESYKSFLKEELDNGLSYPAARESALKKYTAHSINIPQIISSSNNILGIEYLKALRRIKSSIIPLTIKRINNDYNTENITGSISSASSIRKYISTSNSTSFDDVLAMTMPKTSVDILFEEFSAGRGPVFKEDFYPVVTSLIRKMTPEQIRNFAYVSEGLENRIKSAADTAGTYEELVESICTRRYTKTRVQRILMGILMGVTSKDLDMLSRFDSPQYARILGFNSKGKQLLSQIKKKSSIPLVLKLSDFIKSCDPVLKRKLELEILATDLYVMCYKNPAFRKAGQEFTQNIIIM” the value was “soluble”.
